Series [1] has as its system HeLa cell spheres. The series can be described thus: Cell suspension test with HeLa cell spheres. The note with it: DMEM/F-12, 37°C, 1 hr. The class given is cell-based, human. The method, then: Human cervical cancer cell line HeLa (manufactured by DS PHARMA BIOMEDICAL CO., LTD.) was suspended in EMEM medium containing 10% (v/v) fetal bovine serum (manufactured by WAKO) at 250000 cells/mL, the suspension (10 mL) was plated on EZ SPHERE (manufactured by ASAHI GLASS CO., LTD.), and cultured in a CO2 incubator (5% CO2) for 3 days. The obtained suspension (10 mL) of spheres (diameter 100-200 μm) was centrifuged (200 G, 5 min) to allow for sphere sedimentation, and the supernatant was removed to give a sphere suspension (1.0 mL). Successively, the deacylated gellan gum-containing medium prepared above was placed in a 1.5 mL Eppendorf tube by 1.0 mL, and a HeLa cell sphere suspension (10 μL) was further added. The cell aggregate was dispersed by tapping, incubated at 37° C., and the dispersion state of the cells 1 hr later was visually observed.
In the same manner as in Reference Experimental Example 2, spheres of HeLa cells were formed, and several tens of the spheres were added to each medium (1 mL) prepared above, the mixture was stood still at 37° C. for 1 hr, and the suspended state of the sphere cells was visually observed. […] Furthermore, it was confirmed that addition of an equal amount of the medium to the cell suspension and centrifugation (300 to 400 G, 5 min) thereof result in sedimentation and recovery of the spheres of HeLa cells.
In the same manner as in Reference Experimental Example 2, spheres of HeLa cells were produced, and several tens of spheres were added to each medium (1 mL) prepared above, the mixture was stood still at 37° C. for 1 hr, and the suspended state of the sphere cells was visually observed. […] Furthermore, it was confirmed that centrifugation (200 G, 5 min) of the cell suspension containing 0.1% (w/v) diutan gum result in sedimentation and recovery of the spheres of HeLa cells.

Series [2] is described as follows: State and viscosity measurement of medium composition (E type viscometer). The format is physicochemical. The conditions noted are these: DMEM/F-12; for viscosity: 37°C, 100 rpm. On the procedure: The viscosity of the liquid containing the structure can be measured, for example, by the method described in the below-mentioned Examples. Specifically, it can be measured under 37° C. conditions and using an E-type viscosity meter (manufactured by Toki Sangyo Co., Ltd., TV-22 type viscosity meter, model: TVE-22L, corn roter: standard roter 1° 34′×R24, rotation number 100 rpm).
This aqueous solution was allowed to cool to room temperature with stirring, and sterilized at 121° C. for 20 min in an autoclave. […] The viscosity of the medium compositions was measured using an E type viscometer (manufactured by Toki Sangyo Co., Ltd., Viscometer TVE-22L, standard roter 1° 34′×R24) under 37° C. condition at 100 rpm for 5 min.
The medium compositions prepared above were subjected to a suspension test of HeLa cell spheres and a viscosity measurement, in the same manner as with the deacylated gellan gum-containing medium. The viscosity of 1.0% (w/v) methylcellulose was measured at 50 rpm due to the measurement range of the apparatus.

As to collagen, the HeLa cell suspension/sedimentation entry was “sedimentation” in series [1] (collagen 0.01% (w/v)), “suspension” in series [1] (collagen 0.05% (w/v)), “suspension” in series [1] (collagen 0.1% (w/v)) and “suspension” in series [1] (collagen 0.2% (w/v)). The state entry in series [2] (collagen 0.01% (w/v)) was “liquid”; in series [2] (collagen 0.05% (w/v)), “liquid/solid”; in series [2] (collagen 0.1% (w/v)) it was “solid (gel)”; in series [2] (collagen 0.2% (w/v)), “solid (gel)”. In addition, the viscosity in series [2] (collagen 0.01% (w/v)) is listed as 1.18 mPa · s; in series [2] (collagen 0.05% (w/v)), “unmeasurable”; in series [2] (collagen 0.1% (w/v)) it was “unmeasurable”; in series [2] (collagen 0.2% (w/v)), “unmeasurable”.

The values are drawn from patent US10519419B2, “Method for producing culture medium composition” (NISSAN CHEMICAL CORPORATION, priority 2014, dated 2019).
